Each sequence was assayed against T1, F13H6.1 (F13H6.1) (Caenorhabditis elegans) (UniProt H2KZR6).
T1 sequence: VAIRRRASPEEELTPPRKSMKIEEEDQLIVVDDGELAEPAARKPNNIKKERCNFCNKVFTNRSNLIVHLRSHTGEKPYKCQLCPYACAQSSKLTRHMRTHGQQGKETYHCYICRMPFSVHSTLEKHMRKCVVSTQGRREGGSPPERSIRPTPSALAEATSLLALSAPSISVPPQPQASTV
“AGTGACCA (double strand) [8-mer AGTGACCA]” was tested, and the binding signal (PBM E-score (-0.5 to 0.5)) was 0.498. Work on “AATGGTCA (double strand) [8-mer AATGGTCA]” yielded a binding signal (PBM E-score (-0.5 to 0.5)) of 0.495. With “GTGGTCAA (double strand) [8-mer GTGGTCAA]” the binding signal (PBM E-score (-0.5 to 0.5)) was 0.496. “AATGACCA (double strand) [8-mer AATGACCA]” showed a binding signal (PBM E-score (-0.5 to 0.5)) of 0.496. For “AGTGGTCA (double strand) [8-mer AGTGGTCA]”, the binding signal (PBM E-score (-0.5 to 0.5)) was 0.497. Sequence “CTTGACCA (double strand) [8-mer CTTGACCA]” has a binding signal (PBM E-score (-0.5 to 0.5)) of 0.496. “ATTGGTCA (double strand) [8-mer ATTGGTCA]” was tested, and the binding signal (PBM E-score (-0.5 to 0.5)) was 0.495. “ACTGGTCA (double strand) [8-mer ACTGGTCA]” gave a binding signal (PBM E-score (-0.5 to 0.5)) of 0.495. With “CTGACCAC (double strand) [8-mer CTGACCAC]” the binding signal (PBM E-score (-0.5 to 0.5)) was 0.495. “GATGACCA (double strand) [8-mer GATGACCA]” was tested, and the binding signal (PBM E-score (-0.5 to 0.5)) was 0.494. In the case of “GTTGACCA (double strand) [8-mer GTTGACCA]”, the binding signal (PBM E-score (-0.5 to 0.5)) is reported as 0.494. Sequence “AAGTGACC (double strand) [8-mer AAGTGACC]” has a binding signal (PBM E-score (-0.5 to 0.5)) of 0.494. “GGTGGTCA (double strand) [8-mer GGTGGTCA]” was tested, and the binding signal (PBM E-score (-0.5 to 0.5)) was 0.494. “GAGTGACC (double strand) [8-mer GAGTGACC]” was tested, and the binding signal (PBM E-score (-0.5 to 0.5)) was 0.496. “ACTGACCA (double strand) [8-mer ACTGACCA]” showed a binding signal (PBM E-score (-0.5 to 0.5)) of 0.497.

What follows are sequences tested against T2, Y44A6D.3 (Y44A6D.3) (Caenorhabditis elegans) (UniProt Q9XXE0).
T2 sequence: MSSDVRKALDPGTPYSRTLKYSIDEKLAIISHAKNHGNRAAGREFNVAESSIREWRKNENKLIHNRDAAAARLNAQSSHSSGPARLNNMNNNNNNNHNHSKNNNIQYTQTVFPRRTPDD
Sequence “CCTGCGCA (double strand) [8-mer CCTGCGCA]” has a binding signal (PBM E-score (-0.5 to 0.5)) of 0.493. “ATGCGCGG (double strand) [8-mer ATGCGCGG]” was tested, and the binding signal (PBM E-score (-0.5 to 0.5)) was 0.494. For “ACCGCGCA (double strand) [8-mer ACCGCGCA]”, the binding signal (PBM E-score (-0.5 to 0.5)) was 0.495. Work on “CCGCGCAG (double strand) [8-mer CCGCGCAG]” yielded a binding signal (PBM E-score (-0.5 to 0.5)) of 0.495. “TCCGCGCA (double strand) [8-mer TCCGCGCA]” was tested, and the binding signal (PBM E-score (-0.5 to 0.5)) was 0.495. Work on “CCGCGCAC (double strand) [8-mer CCGCGCAC]” yielded a binding signal (PBM E-score (-0.5 to 0.5)) of 0.496. In the case of “GCTGCGCA (double strand) [8-mer GCTGCGCA]”, the binding signal (PBM E-score (-0.5 to 0.5)) is reported as 0.494. “ACTGCGCA (double strand) [8-mer ACTGCGCA]” gave a binding signal (PBM E-score (-0.5 to 0.5)) of 0.498. Sequence “CTGCGCAA (double strand) [8-mer CTGCGCAA]” has a binding signal (PBM E-score (-0.5 to 0.5)) of 0.495. In the case of “ATGCGCAG (double strand) [8-mer ATGCGCAG]”, the binding signal (PBM E-score (-0.5 to 0.5)) is reported as 0.493. In the case of “GGTGCGCA (double strand) [8-mer GGTGCGCA]”, the binding signal (PBM E-score (-0.5 to 0.5)) is reported as 0.493. Work on “GCCGCGCA (double strand) [8-mer GCCGCGCA]” yielded a binding signal (PBM E-score (-0.5 to 0.5)) of 0.494. “CTGCGCAG (double strand) [8-mer CTGCGCAG]” showed a binding signal (PBM E-score (-0.5 to 0.5)) of 0.496.

These sequences were tested against lin-48 (F34D10.5) (Caenorhabditis elegans) (UniProt G5EDU6).
Sequence of lin-48 (F34D10.5) (Caenorhabditis elegans) (G5EDU6 83-280): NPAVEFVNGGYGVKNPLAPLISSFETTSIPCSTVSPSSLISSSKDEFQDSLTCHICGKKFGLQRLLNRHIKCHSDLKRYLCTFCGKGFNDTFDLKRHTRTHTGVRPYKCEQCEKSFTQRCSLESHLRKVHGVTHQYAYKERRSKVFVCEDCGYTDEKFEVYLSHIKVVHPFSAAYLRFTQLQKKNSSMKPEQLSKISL
“AACCGTTA (double strand) [8-mer AACCGTTA]” was tested, and the binding signal (PBM E-score (-0.5 to 0.5)) was 0.49. “GACCGTTA (double strand) [8-mer GACCGTTA]” showed a binding signal (PBM E-score (-0.5 to 0.5)) of 0.496. “AGTAACGG (double strand) [8-mer AGTAACGG]” gave a binding signal (PBM E-score (-0.5 to 0.5)) of 0.487. “ACCGTTAT (double strand) [8-mer ACCGTTAT]” showed a binding signal (PBM E-score (-0.5 to 0.5)) of 0.493. “TAACGGGA (double strand) [8-mer TAACGGGA]” gave a binding signal (PBM E-score (-0.5 to 0.5)) of 0.49. Work on “ATAACGGA (double strand) [8-mer ATAACGGA]” yielded a binding signal (PBM E-score (-0.5 to 0.5)) of 0.485. “CCGTTATC (double strand) [8-mer CCGTTATC]” gave a binding signal (PBM E-score (-0.5 to 0.5)) of 0.49. “GTCCGTTA (double strand) [8-mer GTCCGTTA]” showed a binding signal (PBM E-score (-0.5 to 0.5)) of 0.487. Sequence “ATAACGGG (double strand) [8-mer ATAACGGG]” has a binding signal (PBM E-score (-0.5 to 0.5)) of 0.494. With “ACCGTTAG (double strand) [8-mer ACCGTTAG]” the binding signal (PBM E-score (-0.5 to 0.5)) was 0.489. For “TAACGGTA (double strand) [8-mer TAACGGTA]”, the binding signal (PBM E-score (-0.5 to 0.5)) was 0.494. “CCGTTACA (double strand) [8-mer CCGTTACA]” showed a binding signal (PBM E-score (-0.5 to 0.5)) of 0.486. Sequence “ACCGTTAC (double strand) [8-mer ACCGTTAC]” has a binding signal (PBM E-score (-0.5 to 0.5)) of 0.497. In the case of “GTAACGGA (double strand) [8-mer GTAACGGA]”, the binding signal (PBM E-score (-0.5 to 0.5)) is reported as 0.485. In the case of “CCGTTATA (double strand) [8-mer CCGTTATA]”, the binding signal (PBM E-score (-0.5 to 0.5)) is reported as 0.494.

Each sequence was assayed against T3, lsy-27 (F47H4.1) (Caenorhabditis elegans) (UniProt O45526).
T3 sequence: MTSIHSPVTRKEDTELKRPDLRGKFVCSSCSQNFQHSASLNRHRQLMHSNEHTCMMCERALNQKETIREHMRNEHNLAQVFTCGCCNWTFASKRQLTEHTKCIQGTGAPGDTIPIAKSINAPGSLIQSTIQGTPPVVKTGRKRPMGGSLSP
“AGCTTCAT (double strand) [8-mer AGCTTCAT]” was tested, and the binding signal (PBM E-score (-0.5 to 0.5)) was 0.494. For “GAAGCTTC (double strand) [8-mer GAAGCTTC]”, the binding signal (PBM E-score (-0.5 to 0.5)) was 0.496. “AGCTTCAC (double strand) [8-mer AGCTTCAC]” was tested, and the binding signal (PBM E-score (-0.5 to 0.5)) was 0.493. In the case of “AAAGCTTC (double strand) [8-mer AAAGCTTC]”, the binding signal (PBM E-score (-0.5 to 0.5)) is reported as 0.492. “GCTTCACC (double strand) [8-mer GCTTCACC]” was tested, and the binding signal (PBM E-score (-0.5 to 0.5)) was 0.491. With “AAGCTTCA (double strand) [8-mer AAGCTTCA]” the binding signal (PBM E-score (-0.5 to 0.5)) was 0.497. With “AAGCTTCT (double strand) [8-mer AAGCTTCT]” the binding signal (PBM E-score (-0.5 to 0.5)) was 0.496. With “AGCTTCTG (double strand) [8-mer AGCTTCTG]” the binding signal (PBM E-score (-0.5 to 0.5)) was 0.491. Work on “AGCTTCAG (double strand) [8-mer AGCTTCAG]” yielded a binding signal (PBM E-score (-0.5 to 0.5)) of 0.491.

What follows are sequences tested against T4, nhr-204 (R02C2.4) (Caenorhabditis elegans) (UniProt O44543).
T4 sequence: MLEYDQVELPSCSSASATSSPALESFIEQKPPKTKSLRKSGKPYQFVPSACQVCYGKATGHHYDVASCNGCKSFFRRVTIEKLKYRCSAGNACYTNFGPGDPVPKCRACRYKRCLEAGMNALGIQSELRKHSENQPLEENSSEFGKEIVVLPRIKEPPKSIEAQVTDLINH
“ATTGGTCA (double strand) [8-mer ATTGGTCA]” was tested, and the binding signal (PBM E-score (-0.5 to 0.5)) was 0.477.

What follows are sequences tested against pag-3 (F45B8.4) (Caenorhabditis elegans) (UniProt G5EDE1).
Sequence of pag-3 (F45B8.4) (Caenorhabditis elegans) (G5EDE1 76-311): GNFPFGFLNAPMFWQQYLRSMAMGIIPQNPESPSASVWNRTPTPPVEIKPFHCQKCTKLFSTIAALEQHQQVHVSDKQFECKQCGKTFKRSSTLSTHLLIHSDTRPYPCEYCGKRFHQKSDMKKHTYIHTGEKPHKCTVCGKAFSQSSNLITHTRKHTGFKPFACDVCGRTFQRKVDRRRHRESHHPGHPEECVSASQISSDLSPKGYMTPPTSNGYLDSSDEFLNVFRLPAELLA
For “AAATCACG (double strand) [8-mer AAATCACG]”, the binding signal (PBM E-score (-0.5 to 0.5)) was 0.492. With “AAATCTGA (double strand) [8-mer AAATCTGA]” the binding signal (PBM E-score (-0.5 to 0.5)) was 0.486. In the case of “AAATCACA (double strand) [8-mer AAATCACA]”, the binding signal (PBM E-score (-0.5 to 0.5)) is reported as 0.49. In the case of “CAAATCAC (double strand) [8-mer CAAATCAC]”, the binding signal (PBM E-score (-0.5 to 0.5)) is reported as 0.487. Work on “CAAATCTG (double strand) [8-mer CAAATCTG]” yielded a binding signal (PBM E-score (-0.5 to 0.5)) of 0.489. Work on “AATCTGTG (double strand) [8-mer AATCTGTG]” yielded a binding signal (PBM E-score (-0.5 to 0.5)) of 0.487. “AAAATCTG (double strand) [8-mer AAAATCTG]” showed a binding signal (PBM E-score (-0.5 to 0.5)) of 0.491. Sequence “AATCAGTG (double strand) [8-mer AATCAGTG]” has a binding signal (PBM E-score (-0.5 to 0.5)) of 0.491. “AAATCTCA (double strand) [8-mer AAATCTCA]” showed a binding signal (PBM E-score (-0.5 to 0.5)) of 0.487. For “AAATCTGG (double strand) [8-mer AAATCTGG]”, the binding signal (PBM E-score (-0.5 to 0.5)) was 0.493. Work on “AATCACTG (double strand) [8-mer AATCACTG]” yielded a binding signal (PBM E-score (-0.5 to 0.5)) of 0.49. “AAATCTGT (double strand) [8-mer AAATCTGT]” gave a binding signal (PBM E-score (-0.5 to 0.5)) of 0.49. “CAGATTTA (double strand) [8-mer CAGATTTA]” gave a binding signal (PBM E-score (-0.5 to 0.5)) of 0.489. For “AATCACAG (double strand) [8-mer AATCACAG]”, the binding signal (PBM E-score (-0.5 to 0.5)) was 0.491. With “AATCTCAG (double strand) [8-mer AATCTCAG]” the binding signal (PBM E-score (-0.5 to 0.5)) was 0.49.

The sequences below were run against T5, ztf-29 (Y66D12A.12) (Caenorhabditis elegans) (UniProt Q95Q03).
T5 sequence: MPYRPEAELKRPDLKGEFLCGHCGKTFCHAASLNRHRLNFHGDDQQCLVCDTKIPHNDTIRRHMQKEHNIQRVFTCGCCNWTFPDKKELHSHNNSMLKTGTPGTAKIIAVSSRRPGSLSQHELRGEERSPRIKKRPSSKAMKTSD
Work on “GAAGCTTC (double strand) [8-mer GAAGCTTC]” yielded a binding signal (PBM E-score (-0.5 to 0.5)) of 0.494. “AAAGCTTC (double strand) [8-mer AAAGCTTC]” showed a binding signal (PBM E-score (-0.5 to 0.5)) of 0.486. “AAGCTTCA (double strand) [8-mer AAGCTTCA]” showed a binding signal (PBM E-score (-0.5 to 0.5)) of 0.489. For “AAGCTTCT (double strand) [8-mer AAGCTTCT]”, the binding signal (PBM E-score (-0.5 to 0.5)) was 0.49.

Reference: publication PMC4434323
